Source: US20060222643A1 (Chugai, published 2006)

Experiments:
[1] = biological target: T1, human Mpl expressed on BaF3 cells (BaF3-human Mpl) (human, UniProt P40238 26-635); assay: cell-based or functional assay
T1 sequence: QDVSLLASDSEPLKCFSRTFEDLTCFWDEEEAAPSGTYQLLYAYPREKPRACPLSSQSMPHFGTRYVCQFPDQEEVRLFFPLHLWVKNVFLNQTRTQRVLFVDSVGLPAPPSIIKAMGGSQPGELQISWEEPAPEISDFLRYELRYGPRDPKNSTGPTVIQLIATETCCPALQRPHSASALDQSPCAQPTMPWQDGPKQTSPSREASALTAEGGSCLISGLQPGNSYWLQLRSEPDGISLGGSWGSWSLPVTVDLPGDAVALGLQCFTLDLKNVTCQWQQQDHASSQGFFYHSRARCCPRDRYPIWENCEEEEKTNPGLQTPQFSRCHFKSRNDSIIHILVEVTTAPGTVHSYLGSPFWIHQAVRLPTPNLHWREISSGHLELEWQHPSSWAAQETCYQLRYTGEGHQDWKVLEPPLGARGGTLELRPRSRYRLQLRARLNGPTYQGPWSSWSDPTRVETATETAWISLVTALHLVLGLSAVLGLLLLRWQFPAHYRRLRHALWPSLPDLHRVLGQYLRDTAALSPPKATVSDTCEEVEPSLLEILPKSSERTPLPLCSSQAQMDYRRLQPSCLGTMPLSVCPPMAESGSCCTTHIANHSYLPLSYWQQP

[2] = biological target: T2, cynomolgus monkey Mpl expressed on CHO cells (CHO-monkey Mpl) (cynomolgus monkey, UniProt P40238 26-635 (human entry)); assay: flow cytometry on CHO cells
T2 construct: pCXND3-monkey Mpl-His in CHO-DG44; also called monkey Mpl-His
T2 chain: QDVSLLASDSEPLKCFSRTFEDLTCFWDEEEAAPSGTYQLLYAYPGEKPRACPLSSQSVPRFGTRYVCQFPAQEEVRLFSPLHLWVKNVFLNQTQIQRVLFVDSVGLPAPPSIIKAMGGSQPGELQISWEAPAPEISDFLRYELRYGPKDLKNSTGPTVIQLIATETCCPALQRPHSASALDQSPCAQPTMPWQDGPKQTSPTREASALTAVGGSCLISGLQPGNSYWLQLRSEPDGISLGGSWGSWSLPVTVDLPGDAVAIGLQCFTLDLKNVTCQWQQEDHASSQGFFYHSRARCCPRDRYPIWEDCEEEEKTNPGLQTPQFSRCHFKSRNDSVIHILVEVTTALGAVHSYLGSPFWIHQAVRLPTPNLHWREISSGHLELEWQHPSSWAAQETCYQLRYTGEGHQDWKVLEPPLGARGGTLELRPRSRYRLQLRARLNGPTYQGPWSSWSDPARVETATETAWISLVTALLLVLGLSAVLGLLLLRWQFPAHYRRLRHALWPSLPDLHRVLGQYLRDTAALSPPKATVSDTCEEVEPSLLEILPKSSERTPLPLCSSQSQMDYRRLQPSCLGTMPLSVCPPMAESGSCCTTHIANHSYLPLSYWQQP

[3] = biological target: T3, GST fusion protein containing human Mpl MG3 (Gln26 to Ala189) (human, UniProt P40238 26-189); assay: Western blotting of GST fusion protein
T3 construct: As MG1; not shown: glutathione-S-transferase of vector pGEX-4T-3 (Amersham Biosciences)
T3 sequence: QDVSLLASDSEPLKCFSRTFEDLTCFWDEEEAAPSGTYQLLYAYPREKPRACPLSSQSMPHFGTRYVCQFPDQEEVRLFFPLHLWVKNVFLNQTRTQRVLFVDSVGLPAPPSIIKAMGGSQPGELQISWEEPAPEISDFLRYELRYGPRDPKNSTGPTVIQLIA
Description: (§1) Since the anti-human Mpl antibody VB22B can be used for Western blotting, a GST-fusion protein containing a partial sequence of human Mpl was constructed for VB22B epitope analysis. MG1 (Gln26 to Trp491) and MG2 (Gln26 to Leu274) regions were each amplified by PCR, and cloned into pGEX-4T-3 (Amersham Biosciences) to be expressed as GST fusion proteins. The resulting plasmid DNAs were transformed into DH5α to give transformants. A final concentration of 1 mM IPTG was added to the transformants in their logarithmic growth phase to induce the expression of GST fusion proteins. The bacterial cells were harvested after two hours of incubation. The cells were lysed by sonication. The lysates were centrifuged in XL-80 Ultracentrifuge (Beckman, Rotor 70.1Ti) at 35,000 rpm for 30 min. The culture supernatants were removed, and then the fusion proteins were purified using GST Purification Modules (Amersham Biosciences). The samples were separated by 10%-SDS-PAGE, and then transferred onto a PVDF membrane. The membrane was analyzed by the murine antibody VB22B in Western Btotting.
(§2) Then, GST fusion proteins containing the respective regions of human Mpl: MG3 (Gln26 to Ala189), MG4 (Gln26 to Pro106), MG5 (Gln26 to Glu259), and MG6 (Gln26 to Gly245) were prepared and analyzed by Western blotting using the same procedure described above. […] In addition, GST was fused with MG7 (Gln26 to Ala231) and MG8 (Gln26 to Pro217) to prepare GST fusion proteins.

[4] = biological target: T4, GST fusion protein containing human Mpl MG4 (Gln26 to Pro106) (human, UniProt P40238 26-106); assay: Western blotting of GST fusion protein
T4 construct: As MG1; not shown: glutathione-S-transferase of vector pGEX-4T-3 (Amersham Biosciences)
T4 sequence: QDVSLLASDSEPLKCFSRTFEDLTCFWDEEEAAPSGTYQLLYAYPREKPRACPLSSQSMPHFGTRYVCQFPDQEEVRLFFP
Description: as §1, §2

[5] = biological target: T5, GST fusion protein containing human Mpl MG8 (Gln26 to Pro217) (human, UniProt P40238 26-217); assay: Western blotting of GST fusion protein
T5 construct: As MG1; not shown: glutathione-S-transferase of vector pGEX-4T-3 (Amersham Biosciences)
T5 sequence: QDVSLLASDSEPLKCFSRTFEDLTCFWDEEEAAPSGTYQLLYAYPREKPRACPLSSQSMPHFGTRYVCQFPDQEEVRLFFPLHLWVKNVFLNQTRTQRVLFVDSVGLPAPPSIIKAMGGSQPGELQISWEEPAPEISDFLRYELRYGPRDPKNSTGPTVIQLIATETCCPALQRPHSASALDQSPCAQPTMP
Description: as §1, §2

TPO-like agonistic activity, EC50 (growth of BaF3-human Mpl, WST-8) [1]: > 30 nM
binding result [2]: binds
binding result [3]: no binding
binding result [4]: no binding
binding result [5]: no binding
B1: anti-human Mpl antibody VB22B IgG (antibody, V domains shown)
VH: QVQLQQSGPELVKPGASVKISCKASGYAFTNSWMNWVKQRPGKGLEWIGRIYPGDGETIYNGKFRVKATLTADKSSSTAYMDISSLTSEDSAVYFCARGYDDYSFAYWGQGTLVTVSA
VL: DIVMTQAAPSIPVTPGESVSISCRSSKSLLHSNGNTYLYWFLQRPGQSPQLLIYRMSNLASGVPDRFSGSGSGTAFTLRISRVEAEDVGVYYCMQHIEYPFTFGSGTKLEIK
notes: also called murine antibody VB22B
